In PMC3617563:

Target: C276A USP2 catalytic core (inactive active-site mutant) (human) (UniProt O75604)
Test: stopped-flow fluorescence

Sequence of C276A USP2 catalytic core (inactive active-site mutant) (human) (O75604 259-605 C276A): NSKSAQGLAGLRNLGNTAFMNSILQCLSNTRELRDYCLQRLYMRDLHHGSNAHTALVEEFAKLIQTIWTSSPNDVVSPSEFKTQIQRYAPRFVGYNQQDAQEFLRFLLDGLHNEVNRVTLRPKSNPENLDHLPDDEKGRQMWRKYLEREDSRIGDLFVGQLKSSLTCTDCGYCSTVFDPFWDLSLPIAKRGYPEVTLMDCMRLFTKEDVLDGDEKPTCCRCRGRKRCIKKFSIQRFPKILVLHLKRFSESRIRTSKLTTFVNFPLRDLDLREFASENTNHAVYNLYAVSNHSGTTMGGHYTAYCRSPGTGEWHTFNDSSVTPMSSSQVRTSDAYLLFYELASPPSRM

native K48-linked diubiquitin (from UniProt P0CG48 1-76)
k1 (first step, association): 230000 M⁻¹ s⁻¹
k−1 (first step, dissociation): 0.06 s⁻¹
